# Results taken from patent US20260191957A1 (NOVATIM IMMUNE THERAPEUTICS ZHEJIANG, published 2026).
# T1: CD19 on Nalm6-luc tumor cells (CD19+BCMA-) (UniProt P15391 20-556, limits assumed)
# T1 sequence (looked up): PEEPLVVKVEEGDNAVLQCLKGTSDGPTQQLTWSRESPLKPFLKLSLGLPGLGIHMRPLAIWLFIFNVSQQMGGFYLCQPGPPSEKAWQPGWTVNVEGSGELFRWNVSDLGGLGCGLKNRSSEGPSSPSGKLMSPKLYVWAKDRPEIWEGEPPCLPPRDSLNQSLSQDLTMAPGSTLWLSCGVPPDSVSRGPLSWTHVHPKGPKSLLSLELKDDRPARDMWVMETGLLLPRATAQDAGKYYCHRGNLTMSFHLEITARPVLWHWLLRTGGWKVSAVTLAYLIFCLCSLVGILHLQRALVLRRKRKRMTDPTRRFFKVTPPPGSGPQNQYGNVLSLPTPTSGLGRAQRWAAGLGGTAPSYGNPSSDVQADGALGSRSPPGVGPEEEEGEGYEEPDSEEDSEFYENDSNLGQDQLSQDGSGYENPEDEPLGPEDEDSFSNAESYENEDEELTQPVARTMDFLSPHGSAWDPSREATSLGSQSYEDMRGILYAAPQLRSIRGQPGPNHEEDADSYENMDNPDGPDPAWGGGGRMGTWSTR
# B1: B19 CAR (BCMA CAR and CD19-mutant CAR expressed in parallel on T cells) (other)
# chain 1: DIVLTQSPPSLAMSLGKRATISCRASESVTILGSHLIHWYQQKPGQPPTLLIQLASNVQTGVPARFSGSGSRTDFTLTIDPVEEDDVAVYYCLQSRTIPRTFGGGTKLEIKGGGGSGGGGSGGGGSQIQLVQSGPELKKPGETVKISCKASGYTFTDYSINWVKRAPGKGLKWMGWINTETREPAYAYDFRGRFAFSLETSASTAYLQINNLKYEDTATYFCALDYSYAMDYWGQGTSVTVSSTTTPAPRPPTPAPTIASQPLSLRPEACRPAAGGAVHTRGLDFACDIYIWAPLAGTCGVLLLSLVITLYCKRGRKKLLYIFKQPFMRPVQTTQEEDGCSCRFPEEEEGGCELRVKFSRSADAPAYQQGQNQLYNELNLGRREEYDVLDKRRGRDPEMGGKPRRKNPQEGLYNELQKDKMAEAYSEIGMKGERRRGKGHDGLYQGLSTATKDTYDALHMQALPPR
# chain 2: DIQMTQTTSSLSASLGDRVTISCRASQDISKYLNWYQQKPDGTVKLLIYHTSRLHSGVPSRFSGSGSGTDYSLTISNLEQEDIATYFCQQGNTLPYTFGGGTKLEITGGGGSGGGGSGGGGSEVKLQESGPGLVAPSQSLSVTCTVSGVSLPDYGVSWIRQPPRKGLEWLGVIWGSETTYYNSALKSRLTIIKDNSKSQVFLKMNSLQTDDTAIYYCAKHYYYGGSYAMDYWGQGTSVTVSSIEVMYPPPYLDNEKSNGTIIHVKGKHLCPSPLFPGPSKPFWVLVVVGGVLACYSLLVTVAFIIFWVRSKRSRLLHSDYMFMTPRRPGPTRKHYQPYAPPRDFAAYRSRVKFSRSADAPAYQQGQNQLYNELNLGRREEYDVLDKRRGRDPEMGGKPRRKNPQEGLYNELQKDKMAEAYSEIGMKGERRRGKGHDGLYQGLSTATKDTYDALHMQALPPR
# B2: B19-wildtype CAR (BCMA CAR and CD19-wildtype CAR expressed in parallel on T cells) (other)
# chain 1: DIVLTQSPPSLAMSLGKRATISCRASESVTILGSHLIHWYQQKPGQPPTLLIQLASNVQTGVPARFSGSGSRTDFTLTIDPVEEDDVAVYYCLQSRTIPRTFGGGTKLEIKGGGGSGGGGSGGGGSQIQLVQSGPELKKPGETVKISCKASGYTFTDYSINWVKRAPGKGLKWMGWINTETREPAYAYDFRGRFAFSLETSASTAYLQINNLKYEDTATYFCALDYSYAMDYWGQGTSVTVSSTTTPAPRPPTPAPTIASQPLSLRPEACRPAAGGAVHTRGLDFACDIYIWAPLAGTCGVLLLSLVITLYCKRGRKKLLYIFKQPFMRPVQTTQEEDGCSCRFPEEEEGGCELRVKFSRSADAPAYQQGQNQLYNELNLGRREEYDVLDKRRGRDPEMGGKPRRKNPQEGLYNELQKDKMAEAYSEIGMKGERRRGKGHDGLYQGLSTATKDTYDALHMQALPPR
# chain 2: DIQMTQTTSSLSASLGDRVTISCRASQDISKYLNWYQQKPDGTVKLLIYHTSRLHSGVPSRFSGSGSGTDYSLTISNLEQEDIATYFCQQGNTLPYTFGGGTKLEITGGGGSGGGGSGGGGSEVKLQESGPGLVAPSQSLSVTCTVSGVSLPDYGVSWIRQPPRKGLEWLGVIWGSETTYYNSALKSRLTIIKDNSKSQVFLKMNSLQTDDTAIYYCAKHYYYGGSYAMDYWGQGTSVTVSSIEVMYPPPYLDNEKSNGTIIHVKGKHLCPSPLFPGPSKPFWVLVVVGGVLACYSLLVTVAFIIFWVRSKRSRLLHSDYMNMTPRRPGPTRKHYQPYAPPRDFAAYRSRVKFSRSADAPAYQQGQNQLYNELNLGRREEYDVLDKRRGRDPEMGGKPRRKNPQEGLYNELQKDKMAEAYSEIGMKGERRRGKGHDGLYQGLSTATKDTYDALHMQALPPR
# Molecular target: T1, CD19 on Nalm6-luc tumor cells …
# Assay: cell-based or functional assay
Binder,"tumor cell killing rate, Nalm6-luc, E:T 1:8, 72 h luciferase assay","tumor cell killing rate, Nalm6-luc, E:T 1:16, 72 h luciferase assay"
B1,71.8%,49%
B2,55%,30.6%
